Reference: the supplement of paper PMC9170038

Test system: MS2 coat protein
Experiment: apparent KD of MS2 coat protein; designed switch direction (-1 OFF switch, 1 ON switch): -1; higher = weaker reporter binding
In short: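 Designed RNA switches sharing common flanks were transcribed on Illumina chips by stalled E. coli RNA polymerase. They were titrated with SNAP-549-labelled MS2 coat protein, from 0.7 or 1.5 nM doubling to 3 µM, in Tris-HCl pH 7.5 buffer with KCl, MgCl2, BSA, DTT, tRNA and Tween-20. Titrations ran without input, with 200 uM small-molecule ligand, or with an oligonucleotide input. The apparent KD of each design is the median over its clusters, after curve-fitting of normalised cluster fluorescence.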

[1] = Eterna round: R95, input ligand: microRNA oligo, concentration not stated
[2] = Eterna round: R95, input ligand: FMN 200 uM
[3] = Eterna round: R95, input ligand: none
[4] = input ligand: microRNA oligo, concentration not stated

Row | Sequence | apparent KD of MS2 coat protein (input ligand: FMN 200 uM) | apparent KD of MS2 coat protein (input ligand: none) | apparent KD of MS2 coat protein [1] | apparent KD of MS2 coat protein [2] | apparent KD of MS2 coat protein [3] | apparent KD of MS2 coat protein [4]
1 | UAGAAACAUGAGGAUCACCCAUGUGAGGAUAUGGCCCGCCCGGCGUGAGCUGGUUUUGUCAGAAGGCGCAUAGG [salish99_ex1_r4_020] (Eterna round: R97, puzzle: Exclusion 1) | 0.115 µM | 0.0711 µM | – | – | – | –
2 | UCAUAACAUGAGGAUCACCCAUGUGAGGAUAUGAUACUAUGUACUUCGGUACAUAGUAUCAGAAGGCACAUACU [Ex1-3: 11] (puzzle: Exclusion 1) | – | – | 0.0889 µM | – | – | –
3 | UCUGCCGCCGUGAGGAUAUGCCCGCGCGAACGCGGGCAGAAGGCACAUGAGGAUCACCCAUGUCCCGCGGUUUU [salish99_bmx4_r4_132] (Eterna round: R97, puzzle: Brourd's mod of Exclusion 4) | 0.0347 µM | 0.0172 µM | – | – | – | –
4 | GUAGCUUCGGCUACUACAAGCUUUUUGCUCGUCUUAUUAACAUGAGGAUCACCCAUGUCAAAGAGACCUCAUGUAUU [Sensor v3 - turn-off variant 2 - 5] (puzzle: Sensor v3, turn-off variant 2) | – | – | 0.0282 µM | 0.42 µM | 0.462 µM | –
5 | CUGAUGUGAGGAUAUCUAAAAGAAACUGGGCAAAUACCCAGAGAGAAGGCACAUGAGGAUCACCCAUGUAACGA [Anedin] (puzzle: Exclusion 4) | – | – | 0.0209 µM | – | – | –
6 | UGUAACCGAGGAUAUACAUGAGGAUCACCCAUGUAAUGUAGUAUAGUGUAUGUAAGGUGUAGAAGGUGGGAUGU (Eterna round: R97, puzzle: Exclusion 3) | 0.0484 µM | 0.0747 µM | – | – | – | –
7 | AGGCCCGAUGGAGGAUAUGUAAGUAAUUGAGAUACUUCAUGUCACAUGAGGAUCACCCAUGUACGGCAGAAGGCCGACGGAGCC [Raanoner] (Eterna round: R96, puzzle: Exclusion NG 2) | 0.0249 µM | 0.02 µM | – | – | – | 0.0173 µM
8 | GCCUCACAUGAGGAUCACCCAUGUCAGGAUAUACCCAUCCAGCGAAAUUAAAGCUGUAGUAGAAGGGACAUGCA [Bevebeis] (Eterna round: R97, puzzle: Exclusion 1) | 0.0537 µM | 0.0184 µM | – | – | – | –
9 | AAUUAAACAUAGGAUAUCGAAUUUAUUAUUUAACGAGAAGGAUGAACAUGAGGAUCACCCAUGUGGUAUCAUGG [Mat - Exclusion 6 - JL Mod - D23] (puzzle: Exclusion 6) | – | – | 0.197 µM | 0.333 µM | 0.213 µM | –
10 | AGUACUAACACGAAAGUGUUAGUACAAUAAGCUUGUGAUACAUGAGGAUCACCCAUGUCCUCAUAAGCUCGUCUUAU [salish99_TOv2_r3_045] (puzzle: Sensor v3, turn-off variant 2) | – | – | 0.652 µM | 0.0247 µM | 0.0219 µM | –
11 | UACAAGCUUUUAAGAUCCUACAUGAGGAUCACCCAUGUGCUCGUCUUAUAACGUACUGUGACGAAAGUCACGGUACG [JL TOV1 3.21] (Eterna round: R97, puzzle: Sensor, turn-off variant 1) | 0.0929 µM | 0.103 µM | – | – | – | –
12 | CUCGUGCAGCAAAGCUGUACGAGUACAUGAGGAUCACCCAUGUAGGAUAUGGUACGCAAAGCGUGCUAGAAGGAUAUGUGAAGG [Mat - Exclusion NG 3 - Mod of JL - D88] (Eterna round: R96, puzzle: Exclusion NG 3) | 0.0494 µM | 0.0515 µM | – | – | – | 0.0362 µM
13 | GGUAACAUGAGGAUCACCCAUGUGAUACGUUACAUAUAAACCGAGGAUAUACCCUCAGAACGAGGGUAGAAGGUGGGACGACAC [Eternabot solution 8] (Eterna round: R96, puzzle: Exclusion NG 3) | 0.0958 µM | 0.102 µM | – | – | – | 0.0516 µM
14 | UUGUUAUAUGUAGGAUAUGCGUGUUAUUAUUAGGCAGAAGGACAUGAGGAUCACCCAUGUAUGUUGUUGUUAUAUAUUAUAUAU [Title] (Eterna round: R96, puzzle: Exclusion NG 1) | 0.0229 µM | 0.0256 µM | – | – | – | 0.0178 µM
15 | GAGAUGCGGAUAGGAUAUGGAAGAAAAGAAGGAUUAGAAGGGUUGGUUAGAAUACAUGAGGAUCACCCAUGUGAAUCAUGAGAA [AK ExNG1-2.3] (Eterna round: R96, puzzle: Exclusion NG 1) | 0.0992 µM | 0.128 µM | – | – | – | 0.0811 µM
16 | UCUGCAACGCAAGGAUAUCUUAGAGUUGAAGAAAGAGAAGGUGCAGGUGAUAACAUGCCCGUAACAUGAGGAUCACCCAUGUAA [Eternabot solution 48] (Eterna round: R96, puzzle: Exclusion NG 1) | 0.0961 µM | 0.0793 µM | – | – | – | 0.0683 µM
17 | CUUUAGUGAGGAUAUCAGUAGUAAUACAAUAGUAUUAUUACUGAGAAGGCACAUGAGGAUCACCCAUGUUCCUC [Mat - Exclusion 4 - Mod of Omei - D81] (puzzle: Exclusion 4) | – | – | 0.0269 µM | – | – | –

Row | Sequence | apparent KD of MS2 coat protein (input ligand: FMN 200 uM) | apparent KD of MS2 coat protein (input ligand: none) | apparent KD of MS2 coat protein [1] | apparent KD of MS2 coat protein [2] | apparent KD of MS2 coat protein [3] | apparent KD of MS2 coat protein [4]
18 | CACCUGAAGAGAGGAUAUCAUACAUGAGGAUCACCCAUGUAAUAAAUGAGAAUUUCGAAUGUAAUUGAGAAGGCUCAAUAAGGC [Ostricism 95 - Jieux - Exclusion NG 2] (Eterna round: R96, puzzle: Exclusion NG 2) | 0.0829 µM | 0.0479 µM | – | – | – | 0.033 µM
19 | GUGCCGCGAGGAUAUACAGACGGGUCCAUAACGUGUCUCGGACUUGAGGAUCACCCAAGUAGAAGGCGUUUCAG [salish99_ex2_r4_623] (Eterna round: R97, puzzle: Exclusion 2) | 0.0199 µM | 0.0208 µM | – | – | – | –
20 | GCGGAUUAUGUAGGAUAUCGGUCAGUUUCUGAUCGAGAAGGACAUGAGGAUCACCCAUGUAAAUUGCUCGCUUUGUGAGCCCGC [JL ENG1 3.63] (Eterna round: R96, puzzle: Exclusion NG 1) | 0.0345 µM | 0.0148 µM | – | – | – | 0.0124 µM
21 | CAGUACUGAGGAUAUACAUGAGGAUCACCCAUGUGAGAGAUACUAAUGAGGUCGAUUAGUAGAAGGCAGUACUG [Mat X3R4 m4] (Eterna round: R97, puzzle: Exclusion 3) | 0.24 µM | 0.0175 µM | – | – | – | –
22 | AUGUUACUCUGAGGAUAUUGUUUAUUCUUCUCACAUGAGGAUCACCCAUGUUUCCGUGUUUACCGCAAGAAGGCAGUUUUGUUU [JR_ExcNG2_Sub028] (Eterna round: R96, puzzle: Exclusion NG 2) | 0.0411 µM | 0.0318 µM | – | – | – | 0.029 µM
23 | CGGGACGUCCUGAUAAUAAGACAUGAGGAUCACCCAUGUCGGCAGGAUAUCAGUCCUUACGGUUAUGAGAAGGGUCGGCAACCA [Quatis] (Eterna round: R96, puzzle: Exclusion NG 3) | 0.0109 µM | 0.0116 µM | – | – | – | 0.00905 µM
24 | AAGCCACAUGAGGAUCACCCAUGUUAGGAUAUACGCAUGCAGACACGCACGGAUGCAAGUAGAAGGAACCAUGC [Design #5] (Eterna round: R97, puzzle: Exclusion 1) | 0.0168 µM | 0.0159 µM | – | – | – | –
25 | AGAUGGCGAGGAUAUACAUGAGGAUCACCCAUGUGAAGAUAAAGAGUGAGGAAGAAAAGUAGAAGGCGCUGUCA [Mat - Exclusion 3 - Mod of Salish D28] (Eterna round: R96, puzzle: Exclusion 3) | – | – | – | – | – | 0.103 µM
26 | CUGCUGGAGCGGCGCUUUGGUCGUACAUGAGGAUCACCCAUGUAGGAUAUGGUAAAAUUUGCUUGCUAGAAGGAUAGAGUGGUC [salish99_ExNG3_r04_615] (Eterna round: R96, puzzle: Exclusion NG 3) | 0.14 µM | 0.0803 µM | – | – | – | 0.0645 µM
27 | AGUAACCGUCACGAAAGUGAUGGUUACGCAAGCAAUUGUACAUGAGGAUCACCCAUGUCCUCAUUUGCUCGUCUUAU [Sensor 3 - 42] (puzzle: Sensor v3, turn-off variant 2) | – | – | 0.378 µM | 0.313 µM | 0.357 µM | –
28 | AUGAGGGUAAGAAGGUGAAGAUAGAGCGUACCUUAUGGAACAUGAGGAUCACCCAUGUAGCUUUUUGCUCGUCUUAU [JR_SV3TOV2_Sub032] (puzzle: Sensor v3, turn-off variant 2) | – | – | 0.084 µM | 0.0361 µM | 0.0356 µM | –
29 | UGCGAGUAAGGAUAUUCGCGACCACCCACAAGGGCGGUCGAGAAGAAGGUACUUGAGGAUCACCCAAGUCCUAA [Inraindi] (Eterna round: R97, puzzle: Exclusion 4) | 0.0955 µM | 0.0202 µM | – | – | – | –
30 | GGAUCGAGUGUGAGGAUAUGCUGGUCCUAAGAUCAGCAGAAGGCACAUGAGGAUCACCCAUGUGAAAACGGUCC [Mat - Exclusion 4 - JL Mod - D71] (Eterna round: R96, puzzle: Brourd's mod of Exclusion 4) | 0.183 µM | 0.0293 µM | – | – | – | 0.0242 µM
31 | AAUCCUAGCGUAAGGAUAUCAAAACUAUCCCGUUAUGAGAAGGUACAUGAGGAUCACCCAUGUUAAUGGGAUAA [BmEX4 A.19] (Eterna round: R97, puzzle: Brourd's mod of Exclusion 4) | 0.0202 µM | 0.0193 µM | – | – | – | –
32 | GUGUUUCGUGUAGGAUAUGUUUGUGGGUCGCGGGCAGAAGGACAUGAGGAUCACCCAUGUUGCGGGUUCGGUUUGUGCGGGCGC [-22, -20 kcal and 14% A] (Eterna round: R96, puzzle: Exclusion NG 1) | 0.0236 µM | 0.0223 µM | – | – | – | 0.0171 µM
33 | AAUAACAAGUUGAUCCUACACAUGAGGAUCACCCAUGUGCUCGUCUUGUCAAGUACUAUCACGAAAGUGUUAGUUCA [Mod-Hyphema] (Eterna round: R97, puzzle: Sensor, turn-off variant 1) | 0.0747 µM | 0.263 µM | – | – | – | –
